Data on three molecules can be found in patent US20110152345A1, “EBI3, DLX5, NPTX1 AND CDKN3 FOR TARGET GENES OF LUNG CANCER THERAPY AND DIAGNOSIS” (Oncotherapy Science, Inc., priority 2007, published 2011).

First the molecules themselves.
B1: cyclin-dependent kinase inhibitor 3 (CDKN3), endogenous in LC319 cells (enzyme)
chain: MKPPSSIQTSEFDSSDEEPIEDEQTPIHISWLSLSRVNCSQFLGLCALPGCKFKDVRRNVQKDTEELKSCGIQDIFVFCTRGELSKYRVPNLLDLYQQCGIITHHHPIADGGTPDIASCCEIMEELTTCLKNYRKTLIHCYGGLGRSCLVAACLLLYLSDTISPEQAIDSLRDLRGSGAIQTIKQYNYLHEFRDKLAAHLSSRDSQSRSVSR
notes: Endogenous protein in extracts of the human lung cancer cell line LC319; also called KAP; KAP1
B2: EF-1delta161-281 (FLAG-HA-tagged deletion construct) (other, not shown: small tags and cut ends)
chain: GSDNEEEDKEAAQLREERLRQYAEKKAKKPALVAKSSILLDVKPWDDETDMAQLEACVRSIQLDGLVWGASKLVPVGYGIRKLQIQCVVEDDKVGTDLLEEEITKFEEHVQSVDIAAFNKI
notes: Lacks the N-terminal 160 amino acids of EF-1delta; also called EF-1delta 161-281 construct
B3: myc/His-tagged NPTX1 (pcDNA3.1-NPTX1-myc/His) (ligand)
chain: QDFGPTRFICTSVPVDADMCAASVAAGGAEELRSSVLQLRETVLQQKETILSQKETIRELTAKLGRCESQSTLDPGAGEARAGGGRKQPGSGKNTMGDLSRTPAAETLSQLGQTLQSLKTRLENLEQYSRLNSSSQTNSLKDLLQSKIDELERQVLSRVNTLEEGKGGPRNDTEERVKIETALTSLHQRISELEKGQKDNRPGDKFQLTFPLRTNYMYAKVKKSLPEMYAFTVCMWLKSSATPGVGTPFSYAVPGQANELVLIEWGNNPMEILINDKVAKLPFVINDGKWHHICVTWTTRDGVWEAYQDGTQGGSGENLAPYHPIKPQGVLVLGQEQDTLGGGFDATQAFVGELAHFNIWDRKLTPGEVYNLATCSTKALSGNVIAWAESHIEIYGGATKWTFEACRQIN
notes: also called c-myc-tagged NPTX1; exogenous NPTX1; not shown: myc-His tag of the pcDNA3.1 myc-His vector

Assay [1] addresses T1, eukaryotic translation elongation factor 1 delta (EF-1delta), endogenous (human, UniProt P29692 2-281).
T1 construct: Endogenous 31-kDa protein of LC319 cells
T1 sequence: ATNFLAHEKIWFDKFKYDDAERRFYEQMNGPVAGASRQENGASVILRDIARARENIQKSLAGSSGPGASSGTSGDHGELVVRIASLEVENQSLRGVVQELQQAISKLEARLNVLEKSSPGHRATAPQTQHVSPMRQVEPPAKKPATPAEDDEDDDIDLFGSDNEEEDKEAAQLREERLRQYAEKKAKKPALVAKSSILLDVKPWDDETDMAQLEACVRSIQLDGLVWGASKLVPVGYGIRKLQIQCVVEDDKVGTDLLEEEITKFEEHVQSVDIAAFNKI
The experiment in a line: co-immunoprecipitation with anti-CDKN3 monoclonal antibody from LC319 extracts, silver stain, MALDI-TOF-MS. As for the experimental part:
Cell extracts from lung-cancer cell line LC319 were pre-cleared by incubation at 4 degree Centigrade for 1 hour with 100 micro L of protein G-agarose beads in a final volume of 2 ml of immunoprecipitation buffer [0.5% NP-40, 50 mM Tris-HCl, 150 mM NaCl] in the presence of protease inhibitor. After centrifugation at 1000 rpm for 5 min at 4 degree Centigrade, the supernatant was incubated at 4 degree Centigrade with anti-CDKN3 monoclonal antibody or normal mouse IgG, for 2 hours. The beads were then collected by centrifugation at 5000 rpm for 2 min and washed six times with 1 ml of each immunoprecipitation buffer. The washed beads were resuspended in 50 micro L of Laemmli sample buffer and boiled for 5 min, and the proteins were separated by 5-10% SDS PAGE gels (BIO RAD). After electrophoresis, the gels were stained with silver. Protein bands specifically found in extracts immunoprecipitated with anti-CDKN3 monoclonal antibody were excised and served for matrix-assisted laser desorption/ionization-time of flight mass spectrometry (MALDI-TOF-MS) analysis (AXIMA-CFR plus, SHIMADZU BIOTECH).

The target of assay [2] is B1. The experiment in a line: co-immunoprecipitation with monoclonal anti-Flag antibody from LC319 cells. From the text:
The biological importance of the association of these two proteins and its potential as a therapeutic target for lung cancer was subsequently investigated. To determine the domain in EF-1delta that is required for interaction with CDKN3, each construct of EF-1delta with FLAG-HA-sequence at its N- and C-terminals were transfected into LC319 cells (EF-1delta72-160, EF-1delta161-281, EF-1delta1-160, EF-1delta72-281, and full-length EF-1delta1-281; FIG. 21B).

For assay [3], the target named is T2, neuronal pentraxin receptor (NPTXR), endogenous on SBC-5 lung cancer cells (human, UniProt O95502 1-500).
T2 construct: Endogenous NPTXR of the human SCLC cell line SBC-5
T2 sequence: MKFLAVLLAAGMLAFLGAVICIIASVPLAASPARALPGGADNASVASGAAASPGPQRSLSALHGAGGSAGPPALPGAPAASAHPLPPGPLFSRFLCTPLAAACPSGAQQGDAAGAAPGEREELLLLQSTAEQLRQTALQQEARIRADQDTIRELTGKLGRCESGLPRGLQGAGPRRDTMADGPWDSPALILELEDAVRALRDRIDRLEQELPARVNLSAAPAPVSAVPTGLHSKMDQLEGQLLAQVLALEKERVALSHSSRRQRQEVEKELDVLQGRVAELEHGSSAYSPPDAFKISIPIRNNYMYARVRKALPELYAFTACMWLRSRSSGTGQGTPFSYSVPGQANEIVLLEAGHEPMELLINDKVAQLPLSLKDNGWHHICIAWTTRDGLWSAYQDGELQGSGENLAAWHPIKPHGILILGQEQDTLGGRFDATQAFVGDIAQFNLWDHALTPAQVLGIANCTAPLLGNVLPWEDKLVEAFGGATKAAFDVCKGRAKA
The experiment in a line: immunocytochemistry of recipient SBC-5 cells incubated 3 hours with conditioned medium of NPTX1-transfected donor cells. As for the experimental part:
FIG. 14: Presents internalization of NPTX1 after binding with NPTXR Part A, B, Recipient COS-7 cells (A) or SBC-5 cells (B) were incubated with conditioned medium from NPTX1-transfected (+) donor COS-7 cells or SBC-5 cells, respectively. c-myc-tagged NPTX1 was detected 3 hours after treatment of recipient cells with donor's conditioned medium. Green: NPTX1. Nuclei were visualized by DAPI. (a) Cells were stained for extracellular surface staining with anti-myc antibody for detecting NPTX1. (b) Cells were permialized by Triton X-100 and stained for NPTX1 (myc). (c) 3 hours treatment with PBS. […] 1 or 3 hours after treatment of recipient COS-7 cells with conditioned medium from donor NPTX1-transfected (+) COS-7 cells, internalized NPTX1 was detected by western blotting using anti-myc antibodies.
To determine the mechanism involved in the regulation of NPTX1/NPTXR signaling, the present inventors examined whether NPTX1/NPTXR could be internalized when cells were exposed to secreted NPTX1, through confocal microscopy observation of the subcellular distribution of the NPTX1 and NPTXR. […] The present Mentors detected binding of NPTX1 to the surface of these cells by immunocytochemistry (FIGS. 14A and 14B). […] Then, immunocytochemistry was done under membrane-permeabilizing conditions and we detected internalized exogenous NPTX1 (FIGS. 14A and 14B). […]

A further assay relates to COS-7 cells. The experiment in a line: Autocrine assay: COS-7 cells incubated with recombinant NPTX1 protein, MTT. It counts as cell-based. Conditions: NPTX1 at final concentration of 0.1 nM to 1 nM, compared with control. From the text:
FIG. 10. Presents the autocrine cellular growth effect of NPTX1. Part A depicts the inhibition of growth of lung cancer cells by siRNA against NPTX1. The upper panels of Part A depict the expression of NPTX1 in response to si-NPTX1s (si-1, -2) or control siRNAs (LUC or SCR) in A549 and SBC-5 cells, analyzed by RT-PCR analysis. The middle panels of Part A present images of colonies examined by colony-formation assays of the A549 and SBC-5 cells transfected with specific siRNAs for NPTX1 or control plasmids. The bottom panels of Part A present the viability of the A549 or SBC-5 cells evaluated by MTT assay in response to si-NPTX1s, -LUC, or -SCR. All assays were performed three times, and in triplicate wells. Part B presents growth-promoting effect of NPTX1 transiently overexpressed in COS-7 cells. Top panel, Transient expression of NPTX1 in COS-7 cells, detected by Western blot analysis. The bottom panels, Viability of the COS-7 cells evaluated by MTT (left) and colony formation assays (right). C, Left panel, Autocrine/paracrine effect of NPTX1 on the growth of mammalian cells. Cell viability counted by MTT assays (COS-7 cells treated with NPTX1 in final concentrations of 0, 0.1, or 1 nM) (right lanes indicated by PBS). […]

With B1, the binding result in assay [1] is “binds”.

As for B2, the binding result in assay [2] is given as “no binding”.

Take B3: the binding result in assay [3] is recorded as “binds”. In addition, in the assay with COS-7 cells, the “COS-7 cell growth by MTT assays” value was “enhancement of the cell growth”.
